{
  "source": "paper PMC11546984",
  "key": {"Crovalimab (human) [1]": {"molecular_target": "Crovalimab (human)", "sequence (light, as listed by the source, chain 2 of 2, other chains not shown)": "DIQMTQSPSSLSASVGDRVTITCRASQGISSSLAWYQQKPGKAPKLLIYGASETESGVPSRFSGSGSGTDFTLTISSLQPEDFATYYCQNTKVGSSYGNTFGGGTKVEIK", "test": "SPR; Biacore T200, 37 °C, pH 5.8; antibodies captured by goat anti-human IgG (Fc) on a CM4 chip (50-80 RU); recombinant human C5 as analyte, three-fold dilutions from 135 nM; 20 mM ACES, 150 mM NaCl, 1.2 mM CaCl2, 0.05% Tween 20, 0.005% NaN3; 1:1 binding model"}, "Crovalimab (human) [2]": {"molecular_target": "Crovalimab (human)", "test": "SPR; Biacore T200, 37 °C, pH 7.4; antibodies captured by goat anti-human IgG (Fc) on a CM4 chip (50-80 RU); recombinant human C5 as analyte, three-fold dilutions from 27 nM; 20 mM ACES, 150 mM NaCl, 1.2 mM CaCl2, 0.05% Tween 20, 0.005% NaN3; 1:1 binding model"}},
  "data": [
    {"substance": "Recombinant human C5 (natural protein)", "values": [
      {"measurement": "Kd", "setting": "Crovalimab (human) [1]", "result": 132, "unit": "nM"},
      {"measurement": "koff", "setting": "Crovalimab (human) [1]", "result": 0.0164, "unit": "s⁻¹"},
      {"measurement": "kon", "setting": "Crovalimab (human) [1]", "result": 125000, "unit": "M⁻¹ s⁻¹"},
      {"measurement": "Kd", "setting": "Crovalimab (human) [2]", "result": 0.166, "unit": "nM"},
      {"measurement": "koff", "setting": "Crovalimab (human) [2]", "result": 0.000123, "unit": "s⁻¹"},
      {"measurement": "kon", "setting": "Crovalimab (human) [2]", "result": 741000, "unit": "M⁻¹ s⁻¹"}
    ]}
  ]
}
